Data taken from the supplement of paper PMC10567573.

B1: ADAMTS4 (parent)
chain: SFRKFRYGYNNVVTIPAGATHILV
B2: UBE2R2 (parent)
chain: DPQSGELPSERWNPTQNVRTILLS

Variants of: B1
Assay: protein stability index of a GFP-peptide fusion (GPS, HEK-293T) (PSI 1-6); higher = more stable
Details: c terminus: a fixed tail appended
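Also: lentivirally expressed fusions sorted by FACS into six bins by GFP to DsRed ratio, PSI derived from sequencing read proportions per bin multiplied by bin number.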

Protein stability index: each site, then its substitutions
G8: T 2.71; A 2.21; C 2.46; R 2.96; Q 2.77; V 2.24; K 2.4; P 2.38; I 4.84; E 2.1; N 3.3; H 3.15; L 2.38; F 2.48; D 2.5; M 2.79; S 3.58; W 3.33; Y 1.51
V12: S 2.08; R 1.7; I 3.16; K 2.34; L 2.58; T 3.03; G 3.44; E 2.4; A 2.25; Q 1.26; M 2.29; W 2.09; Y 2.88; H 2.33; F 1.71; C 2.95; D 3.98; N 1.87; P 2.13
K4: P 3.29; D 1.76; E 1.51; S 2.6; M 2.08; G 2.05; A 3.08; H 2.56; N 3.74; Q 3.78; W 3.02; T 2.68; R 2.88; V 1.97; C 2.55; L 2.71; F 2.78; Y 3.11
I15: D 2.35; A 2.17; G 1.4; C 2.03; F 1.55; E 2.16
V13: M 1.9; Y 1.49; N 2.04; R 3.77; F 2.6; E 2.73; H 1.74; S 1.82; C 2.92; P 2.12; A 3.18; G 2.1; L 3.1; I 2.07; K 1.97; Q 1.8; D 2.74; T 2.11; W 3.05
Y7: T 3.1; V 2.81; I 2.89; K 2.92; D 2.07; E 2.63; S 2.19; W 2; C 2.84; P 2.83; F 3.04; M 3.02; Q 2.24; H 1.77; R 2.8; A 3.52; N 2.43; L 2.46
N11: D 2.92; L 1.53; S 2.94; R 1.57; A 3.51; I 2.04; F 1.71; H 3.34; M 2.27; Y 1.19; K 1.61; C 2.42; T 2.59; V 2.57; P 2.59; Q 1.56; E 2.07; G 2.89; W 1.9
T14: V 2.61; M 3; C 1.81; E 2.79; F 2.74; W 3.53; P 1.6; D 3.24; I 2.36; G 1.33; R 1.93; N 3.6; Y 2.27; A 1.42; K 3.9; H 2.92; Q 2.2; L 2.38; S 2.65
F2: E 1.79; A 1.94; H 1.68; W 2.38; T 1.62; R 2.18; M 2.96; P 2.15; G 2.97; L 1.75; S 2.19; K 1.9; Q 2.91; D 2.13; N 1.76; Y 1.8; C 3.07; V 1.99; I 2.03
F5: V 3.85; Y 1.98; R 3.02; N 1.84; L 2.78; K 1.77; D 2.21; S 1.87; Q 1.92; P 1.88; E 2.51; T 2.98; W 2.87; M 3.23; G 2.3; A 2.44; H 1.66
R6: M 3.49; N 2.5; K 3; D 2.22; L 3.25; A 1.91; H 2.76; W 2.86; Q 3.44; C 4.22; F 3.68; T 2.37; G 2.57; P 3.56; V 2.5; S 2.95; Y 2.15; I 2.3
N10: H 1.84; W 1.6; F 2.9; M 2.49; Y 2.02; D 3.41; L 4.32; K 1.81; Q 1.94; T 2.18; R 2.36; E 1.56; V 1.81; I 3.13; G 1.34; C 2.65; S 1.99; P 1.86
R3: I 3.31; Y 2.37; M 1.83; C 3.97; A 2.45; N 2.89; T 1.6; L 3.11; E 2.13; K 3.1; F 3.06; D 1.61; Q 2.14; V 2.99; S 2.58; W 2.24; G 2.75; H 1.76
Y9: I 2.46; V 1.65; E 1.71; C 1.55; T 2.05; R 2.46; W 3.46; H 2.36; D 2.86; N 2.14; P 1.76; K 2.07; L 2.75; F 1.72; M 1.9; G 3.68; A 3.15; Q 2.01; S 1.78
S1: M 2.99; D 2.25; V 2.17; F 2.34; E 3.35; N 2; P 2.22; T 1.61; H 1.73; K 2.07; A 4.18; L 2.08; I 2.62; C 2.8; Q 2.67; Y 2.22; R 2.79

Variants of: B2
Assay: as above
Details: c terminus: a fixed tail appended

Protein stability index of substitutions, site by site:
L23: C 4.63; V 3.34; T 4.12; E 4.47; S 4.08; I 3.17; M 3.7; D 4.91; A 4.23; K 4.74; N 4.87; P 4.34; W 3.79; H 4.09; Y 3.22; G 3.77; R 4.5; F 3.44; Q 4.65
S24: I 1.84; L 1.56; C 2.35; W 1.61; A 2.82; G 3.4; M 2.23; P 3.95; N 3.86; F 1.82; T 3.14; D 4.43; Y 2.04; E 4.23; H 3.58; Q 4.07; V 2.81; R 3.16; K 4.34
I21: P 4.3; M 4.12; Q 4.18; S 4.33; Y 3.14; H 4.49; L 3.96; K 4.61; G 4.81; T 4.26; W 3.55; N 4.6; V 3.9; R 4.52
L22: H 4.2; A 4.31; S 3.88; F 3.54; N 4.47; Y 2.89; E 5.13; P 4.7; W 2.44; R 4.29; T 4.1; D 4.43; V 3.42; I 3.05; G 4.5; M 4.11; Q 4.25; K 4.41; C 4.12
